Measurements reported in article PMC4119023.
Positions count from the first letter of the chain named. Names may count otherwise.

Tests used:
[1] = substrate: Cc1cc(=O)oc2c(F)c(OP(=O)(O)O)c(F)cc12; experiment: steady-state phosphatase assay; type: biochemical, Kluyveromyces lactis; details: 50 mM MES pH 5.5, 30 °C, 10 μM enzyme
[2] = substrate: Cc1cc(=O)oc2c(F)c(OP(=O)(O)O)c(F)cc12; experiment: steady-state phosphatase assay; type: biochemical, Homo sapiens; details: 50 mM MES pH 5.5, 30 °C, 10 μM enzyme

B1: KlRtr1 NTD (Kluyveromyces lactis NRRL Y-1140) (protein)
chain: MATIEEIKEVVLKPYTNHRQLTIREVETISINLIDLLITKDVKDARTMKYISRFLTKQDYADLVQERNLVKRCGYPLCSKSQARVRDPFADVQMTNFLRQNNPYAYLTEYCTKAHFRCSQFYQFQLSDEALFARVGVHLDDYEPPSEIQLLEEVLA
- Km [1]: 694 ± 74 µM
- kcat [1]: 0.0015 ± 5e-05 s⁻¹

B2: hRPAP2 NTD (Homo sapiens) (protein)
chain: MADFAGPSSAGRKAGAPRCSRKAAGTKQTSTLKQEDASKRKAELEAAVRKKIEFERKALHIVEQLLEENITEEFLMECGRFITPAHYSDVVDERSIVKLCGYPLCQKKLGIVPKQKYKISTKTNKVYDITERKSFCSNFCYQASKFFEAQIPKTPVWVREEERHPDFQLLKEEQSGHSGEEVQLCSKAI
- Km [2]: 1668 ± 205 µM
- kcat [2]: 0.0005 ± 3e-05 s⁻¹

B3: KlRtr1 FL (Kluyveromyces lactis NRRL Y-1140) (protein)
chain: MATIEEIKEVVLKPYTNHRQLTIREVETISINLIDLLITKDVKDARTMKYISRFLTKQDYADLVQERNLVKRCGYPLCSKSQARVRDPFADVQMTNFLRQNNPYAYLTEYCTKAHFRCSQFYQFQLSDEALFARVGVHLDDYEPPSEIQLLEEVLARESDVKQMIRGMTDLKLADDDSREEMERDISDMLADIKIVEINEPNIIGDLGRDR
- Km ([1]; EDTA-treated enzyme): 587 ± 70 µM
- kcat ([1]; EDTA-treated enzyme): 0.001 ± 3e-05 s⁻¹

B4: KlRtr1 FL (Kluyveromyces lactis NRRL Y-1140; E197Q) (protein)
chain: B3 chain with E197Q
- Km ([1]; EDTA-treated enzyme): 529 ± 45 µM
- kcat ([1]; EDTA-treated enzyme): 0.0016 ± 4e-05 s⁻¹
